The source of these data is patent US20210292393A1 (published 2021).

For test [1], the target named is T1, SARS-CoV-2 full length spike protein (wild-type), conjugated to optically encoded beads (SARS-CoV-2, UniProt P0DTC2 14-1208).
T1 construct: also called SARS-CoV-2 spike (S) protein; full-length trimeric SARS-CoV-2 spike protein
The experiment in a line: multiplexed bead flow cytometry, column D.

Test [2] addresses T2, SARS-CoV-2 full length spike protein (wild type) (SARS-CoV-2, UniProt P0DTC2 14-1273).
T2 construct: also called SARS-CoV-2 spike; S protein
The experiment in a line: flow cytometry, CHO cells expressing full-length wild-type SARS-CoV-2 spike.

Test [3] addresses SARS-CoV-2 spike protein on infectious SARS-CoV-2 virus, Italy-INMI1 isolate (SARS-CoV-2, UniProt P0DTC2 14-1273). The experiment in a line: cell-based or functional assay.
The target in test [4] is T3, SARS-CoV-2 full length spike protein (wild type), expressed on the surface of transiently transfected CHO … (SARS-CoV-2, UniProt P0DTC2 14-1273).
T3 construct: also called SARS-CoV-2 spike (S) protein; Wild-Type SARS-CoV-2
The test can be described thus: flow cytometry, CHO cells with full-length WT SARS-CoV-2 spike.

For test [5], the target named is T3, SARS-CoV-2 full length spike protein ….
The target in test [6] is T4, SARS-CoV-2 full length spike protein, wild type, expressed on the surface of transiently transfected CHO cells (SARS-CoV-2, UniProt P0DTC2 14-1273).
T4 construct: also called SARS-CoV-2 spike (S) protein; Wild-Type SARS-CoV-2
The test can be described thus: flow cytometry, CHO cells expressing full-length WT spike.

Test [7] deals with T5, SARS-CoV-2 spike (S) protein, full length, wild type (SARS-CoV-2, UniProt P0DTC2 14-1208).
T5 construct: also called SARS-CoV-2 full length spike; full-length trimeric SARS-CoV-2 spike protein
The experiment in a line: multiplexed bead assay, flow cytometry.

Test [8] concerns the target T2, SARS-CoV-2 full length spike protein ….
The target in test [9] is T6, SARS-CoV-2 full length spike protein (wild type) (SARS-CoV-2, UniProt P0DTC2 14-1208).
T6 construct: also called SARS-CoV-2 spike; S protein
The experiment in a line: multiplexed bead assay, flow cytometry; columns A, B, D, G, H, I.

B1: antibody 510 (antibody, V domains shown)
VH: QVQLQESGPGLVKPSQTLSLTCTVSGGSISSGSYYWSWIRQPAGKGLEWIGRIYTSGSTNYNPSLKSRVTISVDTSKNQFSLKLSSVTAADTAVYYCAREGQWLYRFDYWGQGTLVTVSS
VL: QSALTQPASVSGSPGQSITISCTGTSSDVGNYDLVSWYQQHPGKAPKLVIYGVTKRPSGVSNRFSGSKSGNTASLTISGLQAEDEADYYCCSYATGDTSVFGTGTKVTVL
For B1, in [1], the binding result is reported as “no binding”.

B2: antibody 290 (antibody, V domains shown)
VH: QVHLVQSGAEVKKPGASVKVSCAASGYTFNNYGVSWVRQAPGQGLEWMGWISASNGNTKYAQNLQGRVTMTTDTSTSTAYMELRSLRSDDTAVYYCARDLVGPTAPNYYYGMDVWGQGTAVTVSS
VL: QSVLTQPPSVSGAPGQRVTISCTGSSSSIGAGYDVHWYQQLPGTAPKLLIYANSNRPSGVPDRLSGSKSGTSASLAITGLQAEDEADYYCQSYDSSLSGYVFGTGTKVTVL
B2: in test [2], the binding result was “no binding”.

B3: mAb 555 (antibody, V domains shown)
VH: QVQLVQSGAEVKKPGSSVKVSCKASGGTFSNYAISWVRQAPGQGLEWMGRIIPILGIANYAQKFQGRVTITADKSTSTAYMELSSLRSEDTAVYYCARGYYEARHYYYYYAMDVWGQGTAVTVSS
VL: not shown
In the case of B3, the “IC50, live virus neutralization of Italy-INMI1 isolate; Lab 2, plaque reduction” value in test [3] is 0.05 µg/mL.

B4: antibody 514 (antibody, V domains shown)
VH: EVQLVQSGAEVKKPGATVKISCKVSGYTFTDYYMHWVQQAPGKGLEWMGLVDPEDGETIYAEKFQGRVTITADTSTDTAYMELSSLRSEDTAVYYCATDCKYDILTGHYSAGYYYYGMDVWGQGTTVTVSS
VL: DIQMTQSPSSLSASVGDRVTITCRASQGISNYLAWFQQKPGKAPKSLIYAASSLQSGVPSKFSGSGSGTDFTLTISSLQPEDFATYYCQQYNSYPFTFGGGTKVEIK
Consider B4, for which, in test [1], the binding result was “no binding”.

B5: antibody 434 (antibody, V domains shown)
VH: QVQLVQSGAEVKKPGASVQVSCKASGYTFSDYYIFWVRQAPGQGLEWMGCINPKSGGAIYAQRFQGRVTMTRDTSFNTAYMEMNRLGSDDTAVYYCVTRGPPDIAASGFAWHLDVWGQGTTVTVSS
VL: DIVMTQSPLSLPVTPGEPASISCRSSQSLLSSNGYNYLEWYLQKPGQSPQLLMYLGSNRASGVPDRFSGSGSGTDFTLKINRVEAEDVGVYYCMQALQTPLTFGGGTKVEIK
For the molecule B5, the binding result in [4] is recorded as “no binding”.

B6: antibody 450 (antibody, V domains shown)
VH: EVQLVESGGGLVQPGGSLRLSCAASEFTFSSYWMSWVRQAPGKGLEWVANIKQDGSEKYYVDSVKGRFTISRDNAKNSLYLQMNSLRAEDTAVYYCARVGEYSGYDLFFDYWGQGTLVTVSS
VL: NFMLTQPHSVSESPGKTVTISYTGSSGSIASNYVQWYQQRPGSAPTTVIYEDNQRPSGVPDRFSGSIDSSSNSASLTISGLKTEDEADYYCQSYDSSNQGVFGGGTKLTVL
B6: in [5], the “median fluorescence intensity, fold over isotype control” value is 0.85 fold over isotype. Moreover, the binding result in test [4] is “no binding”.

B7: antibody 541 (antibody, V domains shown)
VH: QVQLVQSGAEVKKPGASVKVSCKASGYTFTSYYVHWVRQAPGQSLEWMGVISPSTGSTTYAQNFQGRVTMTRDTSTTTVYMELSSLRSEDTAVYYCARDDYYDSTRYFDLWGRGTLVTVSS
VL: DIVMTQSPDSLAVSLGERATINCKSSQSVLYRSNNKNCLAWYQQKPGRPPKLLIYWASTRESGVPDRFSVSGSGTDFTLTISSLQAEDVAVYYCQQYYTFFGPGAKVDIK
In the case of B7, the binding result in test [1] is reported as “no binding”.

B8: antibody 432 (antibody, V domains shown)
VH: QVQLQESGPGLVKPSQTLSLTCTVSGGSISSGGYYWNWIRQHPGKGLEWIGYIYDSGSTYYNPSLKSRLTLSIDTSQNQFSLRRTSVTAADTAVYYCARGRQYDYDRTGLQYYFDYWGQGTLVTVSS
VL: EIVLTQSPGTLSLSPGERATLSCRASQSFSSSYLAWYQQKPGQAPRLLIYGASSRATGIPDRFSGSGSGTDFTLTISRLEPEDFAVYYCQQYGTSSLTFGGGTKVEIK
As to B8, the binding result in [6] is reported as “no binding”.

B9: antibody 474 (antibody, V domains shown)
VH: EVQLVESGGGLVQPGGSLRLSCAASGFTFSSYWMHWVRQAPGKGLVWVSRINSDGSSTSYADSVKGRFTISRDNAKNTLYRQMNSLRAEDTAVYYCALGPLDIVGSYYYYGMDVWGQGTTVTVSS
VL: NFMLTQPHSVSESPGKTVTISCTGSSGSIASNYVQWYQQRPGSAPTTVIYEDNQRPSGVPDRFSGSIDSSSNSASLTISGLKTEDEADYYCQSYDSSNQDVVFGGGTKLTVL
On to B9, for which the binding result in [4] is listed as “no binding”.

B10: anti-SARS-CoV-2 antibody 474 (antibody, V domains shown)
VH: B9 VH
VL: B9 VL
Take B10: in test [7], the binding result is listed as “no binding”.

B11: antibody 443 (antibody, V domains shown)
VH: QMRLEESGPGLVKPSETLSLTCTVAGGSITSSDYFWGWLRQSPGKGLEWIASTYHGGSIQYHPALKSRVTISVDASKNQISLRLSSVTAADTAVYYCARDRGDDGPMGTYYFDHWGQGALVTVSS
VL: QSVLTQPPSVSGAPGQSVTISCAGSSSNIGAGHDVHWYQQIPGTAPKLLICGNTNRPSGVPERFSGSRSGTSASLAITGLQAEDEAVYYCQSYDPSHVFFGTGTKLTVL
As for B11, the binding result in [4] is given as “no binding”.

B12: antibody 296 (antibody, V domains shown)
VH: EVQLVESGGGLVQPGGSLRLSCAGSGFTLSNYWMTWVRQAPGKGLEWVANINQDASRKYYGDSVKGRFSVSRDNAKNSLYLQMNSLTAEDTGFYYCVREELPSTPGSTWGQGTLVTVSS
VL: QSALTQPASVSGSPGQSITISCTGTSSDIGGYNHVSWYQQHPGKAPKLMIYGVSNRPSGVSDRFSGSKSDNTASLTISGLQAEDEADYYCSSPTSRGNKVFGTGTKVTVL
Consider B12, for which the “median fluorescence intensity, fold over isotype control” value in test [8] came to 1.12 fold over isotype. Moreover, in test [2], the binding result is “no binding”.

B13: antibody 341 (antibody, V domains shown)
VH: QLQLQESGPGLVKPSETLSLTCTVSGGSISSSSYYWGWIRQPPGKGLEWIGSIYYSGSTYYNPSLKSRVTISVDTSKNQFSLKLSSVTAADTAVYYCARRPLRYFDWLTNFDYWGQGTLVTVSS
VL: EIVLTQSPATLSLSPGERATLSCRASQSVSSYLAWYQQKPGQAPRLLIYDASNRATGIPARFSGSGSGTDFTLTISSLEPEDFAVYYCQQRSNWPITFGQGTRLEIK
For the molecule B13, in [9], the binding result is on record as “no binding”.
